Laboratory results taken from article PMC3578099 (Journal of structural biology, 2013).
Like-named read-outs stand apart in the source and are kept apart here. Square brackets hold non-standard residues; d marks the D form. Ends that are not written are not given here. pY = N[C@@H](Cc1ccc(OP(=O)(O)O)cc1)C(=O)O

Tests used:
[1] = target: T1, SHP-1 C453S catalytic domain (residues 243–530) (human, UniProt P29350 243-530, C453S); experiment: ITC
[2] = target: T1, SHP-1 C453S catalytic domain (residues …); experiment: ITC; remark: listed apart in the source

T1 sequence (P29350 243-530 C453S): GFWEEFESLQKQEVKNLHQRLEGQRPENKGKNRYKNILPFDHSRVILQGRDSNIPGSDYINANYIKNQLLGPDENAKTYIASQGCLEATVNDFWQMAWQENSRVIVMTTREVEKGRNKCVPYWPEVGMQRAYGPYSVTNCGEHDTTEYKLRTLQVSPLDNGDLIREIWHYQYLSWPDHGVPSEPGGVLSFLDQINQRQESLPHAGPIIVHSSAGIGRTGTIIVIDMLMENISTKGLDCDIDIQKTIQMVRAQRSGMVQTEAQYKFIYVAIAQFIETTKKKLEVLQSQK

| Kd [1] [µM] | dH [1] [kcal/mol] | stoichiometry N [1] | Kd [2] [µM] | Binder |
| --- | --- | --- | --- | --- |
| 13.7 ± 1.4 | -28.7 ± 7.3 | 0.7 | 13.4 | ETDKE[pY]YTVKD [JAK1 activation loop phosphopeptide E1029TDKEpYYTVKD] |
| 5.6 ± 1.1 | -21.5 ± 3.5 | 0.9 |  | ETDKEY[pY]TVKD [JAK1 activation loop phosphopeptide E1029TDKEYpYTVKD] |
